Results: paper doi:10.1101/2025.09.16.676506 (bioRxiv, 2025)
Where two headings read alike, the source gives them in different places.

Tests used:
Assay in all cases: cryo-EM structure
cryo-EM structure = target: the molecule itself
[1] = target: T1, TatC with a C-terminal 3XFLAG tag (E. coli), P69423; details: remark: other sources report otherwise
T1 chain: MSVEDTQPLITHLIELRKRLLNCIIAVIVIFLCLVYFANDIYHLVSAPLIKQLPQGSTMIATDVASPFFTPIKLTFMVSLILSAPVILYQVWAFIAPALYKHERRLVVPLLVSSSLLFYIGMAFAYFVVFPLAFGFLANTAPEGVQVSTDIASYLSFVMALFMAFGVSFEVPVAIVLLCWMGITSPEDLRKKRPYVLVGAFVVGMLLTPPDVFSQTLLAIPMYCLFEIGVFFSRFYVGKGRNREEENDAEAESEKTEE

TatB3C3 complex [2] = target: T2, TatB3C3 complex (E. coli, UniProt P69425;P69423)
T2 sequence 1: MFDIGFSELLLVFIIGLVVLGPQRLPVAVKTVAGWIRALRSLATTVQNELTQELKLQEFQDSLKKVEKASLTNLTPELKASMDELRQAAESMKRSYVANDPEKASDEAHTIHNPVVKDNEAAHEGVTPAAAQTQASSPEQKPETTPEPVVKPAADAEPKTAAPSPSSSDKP
T2 sequence 2: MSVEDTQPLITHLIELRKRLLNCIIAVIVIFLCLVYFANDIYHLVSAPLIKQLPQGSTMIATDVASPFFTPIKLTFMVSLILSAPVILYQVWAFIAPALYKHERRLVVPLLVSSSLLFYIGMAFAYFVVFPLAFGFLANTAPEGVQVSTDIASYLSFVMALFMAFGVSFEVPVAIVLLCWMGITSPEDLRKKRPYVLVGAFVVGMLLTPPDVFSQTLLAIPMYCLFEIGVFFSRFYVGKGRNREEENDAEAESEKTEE

TatB3C3 complex [3] = target: T2, TatB3C3 complex; remark: listed apart in the source

B1: TatB (natural protein)
chain: MFDIGFSELLLVFIIGLVVLGPQRLPVAVKTVAGWIRALRSLATTVQNELTQELKLQEFQDSLKKVEKASLTNLTPELKASMDELRQAAESMKRSYVANDPEKASDEAHTIHNPVVKDNEAAHEGVTPAAAQTQASSPEQKPETTPEPVVKPAADAEPKTAAPSPSSSDKP
- stoichiometry N (cryo-EM structure): 3

B2: TatC with a C-terminal 3XFLAG tag, P69423 1-258 (natural protein)
chain: MSVEDTQPLITHLIELRKRLLNCIIAVIVIFLCLVYFANDIYHLVSAPLIKQLPQGSTMIATDVASPFFTPIKLTFMVSLILSAPVILYQVWAFIAPALYKHERRLVVPLLVSSSLLFYIGMAFAYFVVFPLAFGFLANTAPEGVQVSTDIASYLSFVMALFMAFGVSFEVPVAIVLLCWMGITSPEDLRKKRPYVLVGAFVVGMLLTPPDVFSQTLLAIPMYCLFEIGVFFSRFYVGKGRNREEENDAEAESEKTEE
- stoichiometry N [1]: 3

B3: SufI–8×His (natural protein)
chain: MSLSRRQFIQASGIALCAGAVPLKASAAGQQQPLPVPPLLESRRGQPLFMTVQRAHWSFTPGTRASVWGINGRYLGPTIRVWKGDDVKLIYSNRLTENVSMTVAGLQVPGPLMGGPARMMSPNADWAPVLPIRQNAATLWYHANTPNRTAQQVYNGLAGMWLVEDEVSKSLPIPNHYGVDDFPVIIQDKRLDNFGTPEYNEPGSGGFVGDTLLVNGVQSPYVEVSRGWVRLRLLNASNSRRYQLQMNDGRPLHVISGDQGFLPAPVSVKQLSLAPGERREILVDMSNGDEVSITCGEAASIVDRIRGFFEPSSILVSTLVLTLRPTGLLPLVTDSLPMRLLPTEIMAGSPIRSRDISLGDDPGINGQLWDVNRIDVTAQQGTWERWTVRADEPQAFHIEGVMFQIRNVNGAMPFPEDRGWKDTVWVDGQVELLVYFGQPSWAHFPFYFNSQTLEMADRGSIGQLLVNPVP
- stoichiometry N (TatB3C3 complex [2]): 2
- stoichiometry N (TatB3C3 complex [3]): 1
